The text below walks through data of the supplement of paper PMC7125110.

The labels stand for the following.
B1: glmS ribozyme (parent)
chain: AUAAAAGCGCCAGAACUACAGAAAUGUAGUUGACGAGGAGGAGGUUUAUCGAAUUUUCGGCGGAUGCCUCCAAA

± gives the standard error. Variants at the floor of the assay were thinned out. Some results are limits rather than exact numbers.

Holding throughout (settings): with glucosamine-6-phosphate
Variants of B1 are the subject of data set [1]. As to the kind of experiment: self-cleavage kobs at 2500 uM GlcN6P; higher = faster cleavage; RNA array. In outline: (§1)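 The measurements used barcoded ribozyme variants on sequenced MiSeq chips, transcribed in situ by E. coli RNA polymerase and tracked at 37 °C with a hybridised Cy3 probe. Glucosamine-6-phosphate, 40 μM to 10 mM in HEPES/KCl/Mg(OAc)2 buffer, was flowed in while tiles were imaged over ~14 h. Baseline-normalised signals, also normalised to non-cleaving reference variants, gave per-tile medians that were fit to one- or two-exponential decays for kobs. kcat and KM resulted from weighted Michaelis–Menten fits across concentrations.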

Variants of B1 are the subject of data set [2]. The experiment in a line: self-cleavage kobs at 640 uM GlcN6P; higher = faster cleavage; RNA array. In short, it runs like this: as §1
Data set [3] covers variants of B1. The experiment in a line: self-cleavage kobs at 10000 uM GlcN6P; higher = faster cleavage; RNA array. In outline: as §1

In the case of AUAAAAUCGCCAGAACUACAGAAAUGUAGUUGUCGAGGAGGAGGUUUAUCGAAUUUUCGGCGGAUGCCGCCAAA, the “self-cleavage kobs at 2500 uM GlcN6P” value with glucosamine-6-phosphate [1] stood at 0.000542 ± 0.00021 s⁻¹.
AUAAAAGCGCCUGAACUACAGAAAUGUAGUUGACGAGGAGGAGGUUUAUCGAAUUUUCGGCGGAUGGCUUCAAA: in the data set with glucosamine-6-phosphate [2], the “self-cleavage kobs at 640 uM GlcN6P” value was 0.000172 ± 3.8e-05 s⁻¹. The “self-cleavage kobs at 2500 uM GlcN6P” value in the data set with glucosamine-6-phosphate [1] came out at 0.000623 ± 0.00017 s⁻¹.
Consider AUAAAAGCGCCAGAACUACAGAAAUGUAGUCGACGAGUAGUAGGUUUAUCGAAUUUUCGGCGCAUGCCUCCAAA, for which the “self-cleavage kobs at 640 uM GlcN6P” value with glucosamine-6-phosphate [2] is less than 1e-05 s⁻¹.
The same measure, in the same setting: the value for AUAAAUGCGCCAGAACUACAGAAAUGUAGUUGACGAGGAGGAGUUUUAGCGAAUUUUCGGCGGAUGCCUCCAAA was less than 1e-05 s⁻¹; that for AUAAAAGCGCCAGUACUACAGAAAUGUACUUGACGAGGAGGAGGUUUGUCGAAUUUUCGGCGGAAGCCUCCAAA was less than 1e-05 s⁻¹.
Take AUAAAAGCGCCCGAACUACAGAAAUGUAGUUAACGAGGAGGAGGUUUAUCGAAGUUUCGGCGGAUGCCUCCAAA: the “self-cleavage kobs at 640 uM GlcN6P” value with glucosamine-6-phosphate [2] turned out to be 2.31e-05 ± 1.1e-05 s⁻¹. For the same variant, the “self-cleavage kobs at 2500 uM GlcN6P” value with glucosamine-6-phosphate [1] is 3.03e-05 ± 9.9e-06 s⁻¹. Further, the “self-cleavage kobs at 10000 uM GlcN6P” value with glucosamine-6-phosphate [3] is 0.00014 ± 2.3e-05 s⁻¹.
For AUAAAAGCCCCAGAACUACAGAAAUGUACUUGACGAGGAGGAGGUUUAUCGUAUUUUCGGCGGAUGCCUUCAAA, the “self-cleavage kobs at 640 uM GlcN6P” value in the data set with glucosamine-6-phosphate [2] is less than 1e-05 s⁻¹. In addition, the “self-cleavage kobs at 2500 uM GlcN6P” value with glucosamine-6-phosphate [1] was less than 1e-05 s⁻¹. Also, the “self-cleavage kobs at 10000 uM GlcN6P” value in the data set with glucosamine-6-phosphate [3] is less than 1e-05 s⁻¹.
AUAAAAGCGCCAGAACUACAGAAAUGUAGUAGACGAGUAGGAGGUUUAUCAAAUUUUCGGCGGAUGCCUCCAAA: in the data set with glucosamine-6-phosphate [1], the “self-cleavage kobs at 2500 uM GlcN6P” value is less than 1e-05 s⁻¹.
As to AUAAAAGCGCCAUAGCUACAGAAAUGUAGUUGACGAGGAGGAGGUUUAUCCAAUUUUCGGCGGAUGCCUCCAAA, the “self-cleavage kobs at 640 uM GlcN6P” value in the data set with glucosamine-6-phosphate [2] is less than 1e-05 s⁻¹. In addition, in the data set with glucosamine-6-phosphate [1], the “self-cleavage kobs at 2500 uM GlcN6P” value is less than 1e-05 s⁻¹.
For AUAAAAGCGCCAGAACUACAGAAAUGUAGUUGACGAAGAGGAGGUUUAACGAAUUUUCGGCGGAUACCUCCAAA, the “self-cleavage kobs at 640 uM GlcN6P” value with glucosamine-6-phosphate [2] is less than 1e-05 s⁻¹.
Turning to AUAAAAGCGCCAGAACUACAGAAAUGUAGUUGACGAGGAGGAGUUUUGUGGAAUUUUCGGCGGAUGCCUCCAAA, in the data set with glucosamine-6-phosphate [2], the “self-cleavage kobs at 640 uM GlcN6P” value was less than 1e-05 s⁻¹. In addition, the “self-cleavage kobs at 2500 uM GlcN6P” value with glucosamine-6-phosphate [1] is less than 1e-05 s⁻¹. Further, the “self-cleavage kobs at 10000 uM GlcN6P” value with glucosamine-6-phosphate [3] is less than 1e-05 s⁻¹.
In the case of AUAAAAACGCUAGAACUACAGAAAUGUAGUUGACGAGGAGGAGGUUUAUCGUAUUUUAGGCUGAUGCCUCCAAA, the “self-cleavage kobs at 640 uM GlcN6P” value with glucosamine-6-phosphate [2] is less than 1e-05 s⁻¹.
For the variant AUAAAAGCGCUAGAACUACAGAAAUGUAGUUGACGCGGGGGAGGUUUAUCGAAUUUUCGGCGGAUGGCUCCAAA, the “self-cleavage kobs at 640 uM GlcN6P” value with glucosamine-6-phosphate [2] was less than 1e-05 s⁻¹. Besides, the “self-cleavage kobs at 2500 uM GlcN6P” value with glucosamine-6-phosphate [1] was less than 1e-05 s⁻¹.
Turning to AUAAAAGCGCCAGAACUACAGAAAUGUAGUUGACGAGGAGGAGGGUUACCGAAUUUUCGGCGGAUGCCUCCAAA, the “self-cleavage kobs at 640 uM GlcN6P” value in the data set with glucosamine-6-phosphate [2] was less than 1e-05 s⁻¹. Moreover, the “self-cleavage kobs at 10000 uM GlcN6P” value with glucosamine-6-phosphate [3] was less than 1e-05 s⁻¹.
Consider AUAAAAGCGCCAGAACUACAGAAAUGUAGUUGACGAGGAGGAGGUUUAUCGAAUUUUCGGGAGAUGCCUCCAAA, for which the “self-cleavage kobs at 640 uM GlcN6P” value with glucosamine-6-phosphate [2] is less than 1e-05 s⁻¹. Besides, the “self-cleavage kobs at 2500 uM GlcN6P” value with glucosamine-6-phosphate [1] was less than 1e-05 s⁻¹.
Regarding AUAAAAGCGCAAGAACUACAGAAAUGUAGUUGACGAGGGGGAGGUUUAUCGAAUUUUCGGCGGAUGCCUCCAAA, in the data set with glucosamine-6-phosphate [2], the “self-cleavage kobs at 640 uM GlcN6P” value was determined as 0.000101 ± 2.7e-05 s⁻¹. In the data set with glucosamine-6-phosphate [1], the “self-cleavage kobs at 2500 uM GlcN6P” value amounted to 0.000121 ± 2.7e-05 s⁻¹. In addition, the “self-cleavage kobs at 10000 uM GlcN6P” value with glucosamine-6-phosphate [3] was found to be 0.000422 ± 7.8e-05 s⁻¹.
As to AUAAAAGUGCCAGAUCUACAGAAAUGUAGUUGACGAGGAGGAGGUUUCUCGCAUUUUCGGCGGAUGCCUUCAAA, in the data set with glucosamine-6-phosphate [2], the “self-cleavage kobs at 640 uM GlcN6P” value is less than 1e-05 s⁻¹.
The same measure, in the same setting: next, AUAAAAGCGCCGGAACUACAGAAAUGUAGUUGACGUGGAGGAGGUUUAUCGAAUUUUCGGCGGAUGCCUCCAAA: less than 1e-05 s⁻¹; AUAAAAGCGCUAUGACUACAGAAAUGUAGUUGACGAGCAGGAGGUUUAUCGAAUUUUCGGCGGAUGCCUCCAAA: less than 1e-05 s⁻¹; AUAAAAGCGCCAGAACUACAGAAAUGUAAUUGACGAGGAGGAGGUUUAUCGCAUUUGCGGCGGGUGCCUCAAAA: less than 1e-05 s⁻¹.
Take AUAAAAGCGCCAGAACUACAGAAAUGUAGUUGACGGGGAGGCGGUUUAUCGAAUUUCCUGCGGAUGCCUCCAAA: the “self-cleavage kobs at 640 uM GlcN6P” value in the data set with glucosamine-6-phosphate [2] is less than 1e-05 s⁻¹. In the data set with glucosamine-6-phosphate [1], the “self-cleavage kobs at 2500 uM GlcN6P” value was less than 1e-05 s⁻¹.
On to AUAAAAGCGCCAGAACUACAGAAAUGUAGUUGACGAGGACGAGGUUAAUCGAAUUUUCGGCCGAUGCCUCCAAA, for which, in the data set with glucosamine-6-phosphate [1], the “self-cleavage kobs at 2500 uM GlcN6P” value is less than 1e-05 s⁻¹.
On to AUAAAAGCGCCAGAACUACAGAAAUGUAGUUGACGAGGAAGAGGUUCAUCGAACUUUCGGCGGAUGCCUCCAAA, for which the “self-cleavage kobs at 2500 uM GlcN6P” value with glucosamine-6-phosphate [1] was 0.00058 ± 0.00013 s⁻¹.
